Literature values in patent US20260125483A1, “COMPOSITIONS OF IL-6/IL-6R ANTIBODIES AND METHODS OF USE THEREOF” (Tiziana Life Sciences PLC, priority 2020, published 2026).

biological target: IL-6Rc (Homo sapiens, UniProt P05231+P08887); details: binding to gp130 to induce the signaling cascade; WO/2009/140348
Sequence (P08887 20-468): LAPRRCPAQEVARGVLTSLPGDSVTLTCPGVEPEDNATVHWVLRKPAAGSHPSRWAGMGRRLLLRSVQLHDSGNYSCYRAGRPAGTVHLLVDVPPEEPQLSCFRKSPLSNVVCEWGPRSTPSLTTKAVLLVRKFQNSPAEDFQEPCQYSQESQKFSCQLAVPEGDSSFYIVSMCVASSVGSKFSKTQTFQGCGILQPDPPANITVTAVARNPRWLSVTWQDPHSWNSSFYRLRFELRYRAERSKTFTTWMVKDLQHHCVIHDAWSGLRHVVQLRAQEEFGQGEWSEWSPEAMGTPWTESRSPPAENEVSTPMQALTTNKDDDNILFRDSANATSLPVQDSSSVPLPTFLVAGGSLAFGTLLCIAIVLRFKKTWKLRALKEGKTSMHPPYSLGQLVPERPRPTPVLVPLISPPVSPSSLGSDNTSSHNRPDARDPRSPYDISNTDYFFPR
Sequence (P05231 30-212): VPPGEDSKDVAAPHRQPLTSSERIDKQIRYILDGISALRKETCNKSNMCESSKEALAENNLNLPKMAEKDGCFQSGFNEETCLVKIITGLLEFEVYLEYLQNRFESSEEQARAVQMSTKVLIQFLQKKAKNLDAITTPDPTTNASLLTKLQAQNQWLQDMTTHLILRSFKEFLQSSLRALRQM

Row | Molecule | functional activity of IL-6Rc in vitro
1 | 39B9 VL1: IL-6R antibody, heavy chain variable region SEQ ID NO:2, light chain variable region SEQ ID NO: 4 (antibody, V domains shown, 3B9 VL1-VH amino acid sequence; 39B9 VL1-VL amino acid sequence) VH: QVQLVQSGAEVKKPGSSVKVSCKASGGTFSSYAISWVRQAPGQGLEWMGGIIPLFDTTKYAQQFQGRVTITADESTSTAYMELSSLRSEDTAVFYCARDRDILTDYYPMGGMDVWGQGTTVTVSS VL: AIQLTQSPSSLSASVGDRVTITCRASQGISSVLAWYQQKPGKAPKLLIYDASSLESGVPSRFSGSGSGTDFTLTISSLQPEDFATYYCQQSNSYPLTFGGGTKVEIKR | inhibit the functional activity of IL-6Rc
2 | 39B9 VL5: IL-6R antibody, heavy chain variable region SEQ ID NO:2, light chain variable region SEQ ID NO: 6 (antibody, V domains shown, 3B9 VL1-VH amino acid sequence; 39B9 VL5-VL amino acid sequence) VH: QVQLVQSGAEVKKPGSSVKVSCKASGGTFSSYAISWVRQAPGQGLEWMGGIIPLFDTTKYAQQFQGRVTITADESTSTAYMELSSLRSEDTAVFYCARDRDILTDYYPMGGMDVWGQGTTVTVSS VL: DILMTQSPSSLSASVGDRVTITCRASQDISSWLAWYQQKPGKAPKLLIYDASSLESGVPSRFSGSGSGTDFTLTISSLQPEDFATYYCQQSNSYPLTFGGGTKVEIKR | inhibit the functional activity of IL-6Rc
3 | 5C: IL-6R antibody, heavy chain variable region SEQ ID NO: 12, light chain variable region SEQ ID NO: 14 (antibody, V domains shown, 5C VH amino acid sequence; 5C VL amino acid sequence) VH: QVQLVQSGGGVVQPGRSLRLSCAASGFIFSSYDMYWVRQAPGKGLEWVAVILYDGNNKYYADSVKGRFTISRDNSKNTVYLQMNSLRAEDTAVYYCVRASPNWGLFDFWGQGTLVTVSS VL: DIQMTQSPSSLSASVGDRVTITCRASQGISSDLAWYQQKPGKAPKLLMYDASSLESGVPSRFSGSGSGTDFTLTISSLQPEDFATYYCQQFNSYPITFGQGTRLEIKR | inhibit the functional activity of IL-6Rc
4 | 12A: IL-6R antibody, heavy chain variable region SEQ ID NO:8, light chain variable region SEQ ID NO: 10 (antibody, V domains shown, 12A VH amino acid sequence; 12A VL amino acid sequence) VH: QVQLVESWGGVVQPGRSLRLSCAASGFTFSNYDMYWVRQAPGKGLEWVAVILDDGNNNYYADSVKGRFTISRDNSKKKVYLQMNSLRAEDTAVYYCVRASPNWGLLDFWGQGTLVTVSS VL: EIVLTQSPSSLSASVGDRVTITCRASQGISSWLAWYQQKPGKAPKLLIYDASSLESGVPSRFSGSGSGTDFTLTISSLQPEDFATYYCQQFNSYPITFGQGTRLEIKR | inhibit the functional activity of IL-6Rc
